Where no end group is shown, it is not given here.
Assays:
[1] = molecular target: T1, PKC-α (purified isoform) (Homo sapiens (Human), UniProt P17252 2-672); test: competitive ELISA, coated purified PKC-α, vs anti-PKC α (SC-208); PRE 50 µM
T1 construct: also called purified PKC-alpha; commercially purified PKC-alpha
Procedure: (§1) Greiner 96 well ELISA plates were coated with the appropriate PKC isoform diluted in PBSN (PBS with Calcium/Magnesium+0.05% Sodium azide w/w). 50 μL/well at 250 ng/mL was used. Control wells contained PBSN only. Plates were incubated overnight at 4° C.
(§2) The plates were washed 3 times with 200 μL of dH₂O per well, then 100 μL of blocking solution was added per well and the plate incubated for 1 h at 37° C. The washing steps with dH₂O were repeated and 50 μL of the appropriate PRE solution (PRE stock solution [20 mM in DMSO] diluted in PBSN) was added and the plate incubated for 1 h at room temperature.
(§3) 50 μL of 1:1000 dilution of Alkaline Phosphatase (AP) conjugated antibody (anti-rabbit for all except zeta, which was anti-goat) was then added and the plate incubated for 1 h at room temperature. Washing with dH₂O was then repeated. Finally, 100 μL of pNPP solution in pNPP buffer (2 mM MgCl₂, 100 mM Sodium bicarbonate in water, pH 9.8) was added to all wells and incubated for 8 minutes for α, βI, βII ε, and ζ, or for 15-20 mins for δ (until sufficient coloration is observed). The reaction was stopped by addition of Stop solution (2N NaOH) and the absorbance at 405 nm was read on a Galaxy Plate reader.

[2] = molecular target: T2, PKC-δ (purified isoform); test: competitive ELISA, coated purified PKC-δ, vs anti-PKC δ (SC-213); PRE 50 µM
T2 construct: also called PKC-delta
T2 sequence (Q05655 whole entry, stated change not applied, canonical isoform): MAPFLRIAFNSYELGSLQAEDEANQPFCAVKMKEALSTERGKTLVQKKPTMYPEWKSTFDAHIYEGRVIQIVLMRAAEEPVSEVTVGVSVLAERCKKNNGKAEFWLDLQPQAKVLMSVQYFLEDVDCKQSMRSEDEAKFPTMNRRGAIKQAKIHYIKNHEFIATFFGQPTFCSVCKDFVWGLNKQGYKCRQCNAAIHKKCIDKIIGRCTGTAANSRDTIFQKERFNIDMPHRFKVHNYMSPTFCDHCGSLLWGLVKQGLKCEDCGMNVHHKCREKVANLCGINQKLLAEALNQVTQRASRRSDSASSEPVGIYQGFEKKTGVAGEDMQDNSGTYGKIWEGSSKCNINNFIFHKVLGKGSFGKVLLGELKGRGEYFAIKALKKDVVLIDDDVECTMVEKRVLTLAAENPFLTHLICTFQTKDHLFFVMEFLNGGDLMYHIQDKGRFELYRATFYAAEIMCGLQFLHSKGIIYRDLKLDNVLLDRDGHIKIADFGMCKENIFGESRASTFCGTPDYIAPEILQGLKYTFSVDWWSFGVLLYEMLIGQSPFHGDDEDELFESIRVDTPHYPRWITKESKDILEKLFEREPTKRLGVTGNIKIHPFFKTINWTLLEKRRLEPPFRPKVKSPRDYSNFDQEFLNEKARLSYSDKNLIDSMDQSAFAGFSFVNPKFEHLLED
Procedure: as §1, §2, §3

[3] = molecular target: T1, PKC-α (purified isoform); test: competitive ELISA, coated purified PKC-α, vs anti-PKC α (SC-208); PRE 100 µM
Procedure: as §1, §2, §3

[4] = molecular target: T1, PKC-α (purified isoform); test: competitive ELISA, coated purified PKC-α, vs anti-PKC α (SC-208); PRE 200 µM
Procedure: as §1, §2, §3

[5] = molecular target: T2, PKC-δ (purified isoform); test: competitive ELISA, coated purified PKC-δ, vs anti-PKC δ (SC-213); PRE 100 µM
Procedure: as §1, §2, §3

[6] = molecular target: T2, PKC-δ (purified isoform); test: competitive ELISA, coated purified PKC-δ, vs anti-PKC δ (SC-213); PRE 200 µM
Procedure: as §1, §2, §3

[7] = molecular target: T3, PKC-βI (purified isoform) (Homo sapiens (Human), UniProt P05771 2-671); test: competitive ELISA, coated purified PKC-βI, vs anti-PKC βI (SC-209); PRE 50 µM
T3 construct: also called PKC-beta I; PKC beta 1
T3 sequence (P05771 2-671 limits assumed): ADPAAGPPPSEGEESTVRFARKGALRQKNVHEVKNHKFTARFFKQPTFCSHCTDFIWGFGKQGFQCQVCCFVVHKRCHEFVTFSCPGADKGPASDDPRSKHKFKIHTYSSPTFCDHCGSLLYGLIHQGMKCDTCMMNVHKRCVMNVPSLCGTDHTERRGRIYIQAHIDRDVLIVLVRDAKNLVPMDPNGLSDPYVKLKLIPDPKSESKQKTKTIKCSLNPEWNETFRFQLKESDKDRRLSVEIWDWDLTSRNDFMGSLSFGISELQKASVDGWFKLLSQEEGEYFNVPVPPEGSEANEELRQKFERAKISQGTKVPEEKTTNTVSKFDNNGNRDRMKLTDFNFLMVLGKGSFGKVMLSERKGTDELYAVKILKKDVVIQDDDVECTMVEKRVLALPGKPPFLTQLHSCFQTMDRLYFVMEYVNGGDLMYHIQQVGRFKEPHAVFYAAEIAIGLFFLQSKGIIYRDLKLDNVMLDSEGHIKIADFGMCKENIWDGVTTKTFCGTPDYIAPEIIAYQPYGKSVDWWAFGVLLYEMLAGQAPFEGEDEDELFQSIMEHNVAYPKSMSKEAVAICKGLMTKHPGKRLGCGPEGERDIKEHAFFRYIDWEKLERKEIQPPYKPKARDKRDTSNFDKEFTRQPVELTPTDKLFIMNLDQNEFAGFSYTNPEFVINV
Procedure: as §1, §2, §3

[8] = molecular target: T3, PKC-βI (purified isoform); test: competitive ELISA, coated purified PKC-βI, vs anti-PKC βI (SC-209); PRE 100 µM
Procedure: as §1, §2, §3

[9] = molecular target: T3, PKC-βI (purified isoform); test: competitive ELISA, coated purified PKC-βI, vs anti-PKC βI (SC-209); PRE 200 µM
Procedure: as §1, §2, §3

[10] = molecular target: T4, PKC-ε (endogenous, IMR-32 lysate) (human, UniProt Q02156 1-737); test: WB competition Protocol B, IMR-32 extract, vs anti-PKC-ε Ab; PKC-ε Band 1; 20 µg peptide
T4 construct: Band 1 and Band 2 (alternate splicing variants, not identified further) are kept under one molecule; the band is named in the assay field of each row; also called PKC-epsilon; PKC-ε Band 1
T4 sequence (looked up): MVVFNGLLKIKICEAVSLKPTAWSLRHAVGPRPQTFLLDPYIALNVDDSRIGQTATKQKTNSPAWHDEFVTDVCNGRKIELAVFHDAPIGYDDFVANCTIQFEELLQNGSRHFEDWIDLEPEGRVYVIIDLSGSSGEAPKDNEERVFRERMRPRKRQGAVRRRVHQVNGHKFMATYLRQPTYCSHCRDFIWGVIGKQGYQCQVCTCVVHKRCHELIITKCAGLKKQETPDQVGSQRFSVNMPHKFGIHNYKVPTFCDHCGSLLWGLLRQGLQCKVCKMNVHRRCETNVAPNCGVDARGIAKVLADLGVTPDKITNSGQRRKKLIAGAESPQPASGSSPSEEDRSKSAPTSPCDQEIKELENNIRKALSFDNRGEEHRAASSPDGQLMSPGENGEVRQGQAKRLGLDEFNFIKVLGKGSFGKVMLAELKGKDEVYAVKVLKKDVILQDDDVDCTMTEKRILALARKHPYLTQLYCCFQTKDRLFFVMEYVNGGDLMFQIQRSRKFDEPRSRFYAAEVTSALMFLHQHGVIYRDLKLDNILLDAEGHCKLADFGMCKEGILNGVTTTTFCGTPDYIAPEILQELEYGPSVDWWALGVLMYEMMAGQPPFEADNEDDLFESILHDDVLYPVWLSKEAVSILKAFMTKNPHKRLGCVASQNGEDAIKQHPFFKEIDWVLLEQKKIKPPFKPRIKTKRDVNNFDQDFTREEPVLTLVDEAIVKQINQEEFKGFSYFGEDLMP
Procedure: (§4) The ability of the peptides PRE 2 and PRE 3 (see Table 4) to interfere with the binding of a PKC-α-specific polyclonal antibody (Santa Cruz Biotechnology, Inc.) to PKC-α was determined using a modified version of the protocol outlined above in which the test peptide was added directly to the cell extract prior to electrophoresis at a concentration of either 5× or 15× the concentration of the protein applied to each well of the gel for the Western blots (20 μg).
(§5) Peptides PRE 2, PRE 3 and PRE 4 (see Table 4) were tested for their ability to interfere with the binding of isoform-specific polyclonal antibodies (Santa Cruz Biotechnology, Inc.) to […] using the general protocol described in Example 3. Two bands, representing alternate splicing variants of PKC-ε, were identified on the Western blot using this anti-PKC-ε antibody.

[11] = molecular target: T4, PKC-ε (endogenous, IMR-32 lysate); test: WB competition Protocol B, IMR-32 extract, vs anti-PKC-ε Ab; PKC-ε Band 1; 50 µg peptide
Procedure: as §4, §5

[12] = molecular target: T4, PKC-ε (endogenous, IMR-32 lysate); test: WB competition Protocol B, IMR-32 extract, vs anti-PKC-ε Ab; PKC-ε Band 2; 20 µg peptide
Procedure: as §4, §5

[13] = molecular target: T4, PKC-ε (endogenous, IMR-32 lysate); test: WB competition Protocol B, IMR-32 extract, vs anti-PKC-ε Ab; PKC-ε Band 2; 50 µg peptide
Procedure: as §4, §5

[14] = molecular target: T4, PKC-ε (endogenous, IMR-32 lysate); test: WB competition Protocol B, IMR-32 extract, vs anti-PKC-ε Ab; PKC-ε Band 1; 100 µg peptide
Procedure: as §4, §5

[15] = molecular target: T4, PKC-ε (endogenous, IMR-32 lysate); test: WB competition Protocol B, IMR-32 extract, vs anti-PKC-ε Ab; PKC-ε Band 2; 100 µg peptide
Procedure: as §4, §5

[16] = molecular target: PKC-α, purified isoform (UniProt P17252 1-672); test: cell-based or functional assay
[17] = molecular target: PKC-βI, purified isoform (UniProt P05771-1 1-671); test: cell-based or functional assay
PKC-βI, purified isoform, sequence (P05771 whole entry, canonical isoform): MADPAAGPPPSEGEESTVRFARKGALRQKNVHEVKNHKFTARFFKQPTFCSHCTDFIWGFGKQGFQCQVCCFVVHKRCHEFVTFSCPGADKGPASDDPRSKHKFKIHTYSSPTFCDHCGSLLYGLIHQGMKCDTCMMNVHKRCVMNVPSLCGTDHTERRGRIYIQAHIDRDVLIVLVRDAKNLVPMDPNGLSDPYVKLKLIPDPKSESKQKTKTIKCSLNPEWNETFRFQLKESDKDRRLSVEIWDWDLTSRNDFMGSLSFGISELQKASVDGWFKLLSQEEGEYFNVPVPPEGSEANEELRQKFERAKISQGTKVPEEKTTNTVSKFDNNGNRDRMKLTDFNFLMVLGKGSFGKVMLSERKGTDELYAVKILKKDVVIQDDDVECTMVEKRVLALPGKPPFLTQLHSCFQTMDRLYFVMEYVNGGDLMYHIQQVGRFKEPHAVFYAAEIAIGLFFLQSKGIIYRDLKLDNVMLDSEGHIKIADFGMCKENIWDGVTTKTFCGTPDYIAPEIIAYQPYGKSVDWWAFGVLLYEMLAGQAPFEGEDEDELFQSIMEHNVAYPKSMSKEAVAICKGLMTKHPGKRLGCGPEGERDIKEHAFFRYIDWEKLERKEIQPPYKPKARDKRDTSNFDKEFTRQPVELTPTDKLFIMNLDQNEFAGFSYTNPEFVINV

[18] = molecular target: PKC-βII, purified isoform (UniProt P05771-2 1-673); test: cell-based or functional assay
PKC-βII, purified isoform, sequence (P05771 other isoform, or with tags, fused parts or gaps limits assumed): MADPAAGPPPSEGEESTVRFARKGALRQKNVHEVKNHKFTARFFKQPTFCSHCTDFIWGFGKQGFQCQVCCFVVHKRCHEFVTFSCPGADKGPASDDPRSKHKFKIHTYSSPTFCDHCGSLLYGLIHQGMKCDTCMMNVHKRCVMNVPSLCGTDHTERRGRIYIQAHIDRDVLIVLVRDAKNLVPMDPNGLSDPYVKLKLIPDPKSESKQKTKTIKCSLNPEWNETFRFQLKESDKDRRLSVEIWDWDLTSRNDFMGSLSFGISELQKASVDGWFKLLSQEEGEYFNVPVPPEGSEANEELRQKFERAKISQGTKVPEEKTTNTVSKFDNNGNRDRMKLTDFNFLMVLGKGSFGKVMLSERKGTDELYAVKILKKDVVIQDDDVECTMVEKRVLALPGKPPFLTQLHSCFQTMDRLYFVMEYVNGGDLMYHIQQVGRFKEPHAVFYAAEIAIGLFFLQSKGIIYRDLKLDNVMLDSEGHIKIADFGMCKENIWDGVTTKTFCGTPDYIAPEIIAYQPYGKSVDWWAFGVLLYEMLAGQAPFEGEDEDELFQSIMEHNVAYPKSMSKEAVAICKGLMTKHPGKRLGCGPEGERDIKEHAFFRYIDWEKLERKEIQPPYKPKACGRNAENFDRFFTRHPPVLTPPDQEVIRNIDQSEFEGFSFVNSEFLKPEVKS

[19] = molecular target: T5, PKC-ε, purified isoform (UniProt Q02156 1-737); test: cell-based or functional assay
T5 sequence (looked up): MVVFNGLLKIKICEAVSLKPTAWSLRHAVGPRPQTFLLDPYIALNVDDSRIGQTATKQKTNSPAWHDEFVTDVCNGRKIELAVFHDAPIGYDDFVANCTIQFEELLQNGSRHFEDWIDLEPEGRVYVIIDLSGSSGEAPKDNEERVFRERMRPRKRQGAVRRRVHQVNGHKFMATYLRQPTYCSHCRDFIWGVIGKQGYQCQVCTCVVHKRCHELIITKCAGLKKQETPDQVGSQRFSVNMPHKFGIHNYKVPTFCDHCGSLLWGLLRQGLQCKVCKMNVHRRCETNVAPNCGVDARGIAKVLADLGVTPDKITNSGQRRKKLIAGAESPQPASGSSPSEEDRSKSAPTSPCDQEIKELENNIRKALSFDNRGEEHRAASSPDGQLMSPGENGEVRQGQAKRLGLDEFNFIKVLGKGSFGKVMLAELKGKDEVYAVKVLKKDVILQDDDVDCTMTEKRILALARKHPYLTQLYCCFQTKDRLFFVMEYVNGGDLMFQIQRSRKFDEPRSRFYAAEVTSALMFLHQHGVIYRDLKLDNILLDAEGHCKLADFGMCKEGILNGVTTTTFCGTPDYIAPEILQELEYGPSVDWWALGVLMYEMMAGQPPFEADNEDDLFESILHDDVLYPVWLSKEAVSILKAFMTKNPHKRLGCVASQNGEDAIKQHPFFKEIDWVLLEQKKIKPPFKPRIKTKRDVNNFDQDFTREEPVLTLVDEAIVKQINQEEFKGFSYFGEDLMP

[20] = molecular target: PKC-α (UniProt P17252 1-672, limits assumed); test: cell-based or functional assay
[21] = molecular target: PKC-βI (UniProt P05771-1 1-671, limits assumed); test: cell-based or functional assay
PKC-βI, sequence (P05771 whole entry): as the sequence (P05771 whole entry, canonical isoform) above

[22] = molecular target: T6, PKC-ε (UniProt Q02156 1-737); test: cell-based or functional assay
T6 sequence (looked up): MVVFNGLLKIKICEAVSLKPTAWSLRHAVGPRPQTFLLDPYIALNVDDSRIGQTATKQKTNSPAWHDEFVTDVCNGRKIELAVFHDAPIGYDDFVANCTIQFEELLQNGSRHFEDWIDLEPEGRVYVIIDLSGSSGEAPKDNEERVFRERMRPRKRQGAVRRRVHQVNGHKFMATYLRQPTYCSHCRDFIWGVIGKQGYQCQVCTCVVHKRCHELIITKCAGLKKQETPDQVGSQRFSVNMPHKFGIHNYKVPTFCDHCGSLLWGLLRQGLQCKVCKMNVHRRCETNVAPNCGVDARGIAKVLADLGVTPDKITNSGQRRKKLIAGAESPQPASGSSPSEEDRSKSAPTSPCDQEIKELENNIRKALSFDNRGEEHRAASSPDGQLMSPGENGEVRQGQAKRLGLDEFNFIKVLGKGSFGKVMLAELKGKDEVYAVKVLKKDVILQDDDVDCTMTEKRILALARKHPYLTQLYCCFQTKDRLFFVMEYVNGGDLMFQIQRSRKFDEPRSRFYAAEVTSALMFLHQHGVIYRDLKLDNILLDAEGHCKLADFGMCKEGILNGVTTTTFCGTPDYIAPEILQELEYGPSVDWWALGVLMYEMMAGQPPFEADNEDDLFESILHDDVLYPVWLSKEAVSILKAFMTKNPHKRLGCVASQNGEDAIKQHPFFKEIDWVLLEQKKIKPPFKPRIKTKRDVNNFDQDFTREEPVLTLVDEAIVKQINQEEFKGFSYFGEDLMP

B1: PRE 3 (peptide)
peptide: Ac-AKGIQEVKGGDAQNLIGISI-NH2
notes: also called peptide PRE 3
relative binding capacity (100-%n, DMSO subtracted) [1]: 17.5% | relative binding capacity (100-%n, DMSO subtracted) [2]: 48.3% | relative binding capacity (100-%n, DMSO subtracted) [3]: 26.5% | relative binding capacity (100-%n, DMSO subtracted) [4]: 22.6% | relative binding capacity (100-%n, DMSO subtracted) [5]: 56% | relative binding capacity (100-%n, DMSO subtracted) [6]: 57% | relative binding capacity (100-%n, DMSO subtracted) [7]: 26% | relative binding capacity (100-%n, DMSO subtracted) [8]: 22.5% | relative binding capacity (100-%n, DMSO subtracted) [9]: 23% | Band Intensity [10]: 5.12 | Inhibition (%) [10]: 99% | Relative Intensity (%) [10]: 0.12% | Band Intensity [11]: 0 | Inhibition (%) [11]: 100% | Relative Intensity (%) [11]: 0% | Band Intensity [12]: 0 | Inhibition (%) [12]: 100% | Relative Intensity (%) [12]: 0% | Band Intensity [13]: 0 | Inhibition (%) [13]: 100% | Relative Intensity (%) [13]: 0% | Band Intensity [14]: 0 | Inhibition (%) [14]: 100% | Relative Intensity (%) [14]: 0% | Band Intensity [15]: 0 | Inhibition (%) [15]: 100% | Relative Intensity (%) [15]: 0%

B2: compound PKI 3 (peptide)
peptide: FRRK(adenine PNA)FRL
% Inhibition of PKC activity at 150 µM [16]: 47% | % Inhibition of PKC activity at 300 µM [16]: 51% | % Inhibition of PKC activity at 600 µM [16]: 82% | % Inhibition of PKC activity at 150 µM [17]: 37% | % Inhibition of PKC activity at 300 µM [17]: 76% | % Inhibition of PKC activity at 600 µM [17]: 80% | % Inhibition of PKC activity at 150 µM [18]: 31% | % Inhibition of PKC activity at 300 µM [18]: 83% | % Inhibition of PKC activity at 600 µM [18]: 81% | % Inhibition of PKC activity at 150 µM [19]: 38% | % Inhibition of PKC activity at 300 µM [19]: 53% | % Inhibition of PKC activity at 600 µM [19]: 68%

B3: Compound TIM 20 (PRE 1 and PKI 4) (peptide)
chain: Ac-FRRCFRLGGGGGGGRRKKGGKDFVVKR-NH2
% Inhibition of kinase activity (Kinase-Glo), compound at 5.0 µM [20]: 19.8% | % Inhibition of kinase activity (Kinase-Glo), compound at 30.0 µM [20]: 0% | % Inhibition of kinase activity (Kinase-Glo), compound at 5.0 µM [21]: 6.7% | % Inhibition of kinase activity (Kinase-Glo), compound at 30.0 µM [21]: 15.1% | % Inhibition of kinase activity (Kinase-Glo), compound at 5.0 µM [22]: -9% | % Inhibition of kinase activity (Kinase-Glo), compound at 30.0 µM [22]: -29%
